Patent US20070105771A1

How the values were obtained:
Assay in all cases: peptide microarray
[1] = molecular target: T1, human CD26-derived 13 mer peptide 13 (human)
T1 sequence (peptide): QENNILVFNAEYG

[2] = molecular target: T2, human CD26-derived 13 mer peptide 69 (human)
T2 sequence (peptide): RITWTGKEDIIYN

[3] = molecular target: T3, human CD26-derived 13 mer peptide 121 (human)
T3 sequence (peptide): TAPASMLIGDHYL

[4] = molecular target: T4, human CD26-derived 13 mer peptide 125 (human)
T4 sequence (peptide): GDHYLCDVTWATQ

[5] = molecular target: T5, human CD26-derived 13 mer peptide 29 (human)
T5 sequence (peptide): DYSISPDGQFILL

[6] = molecular target: T6, human CD26-derived 13 mer peptide 16 (human)
T6 sequence (peptide): VFNAEYGNSSVFL

[7] = molecular target: T7, human CD26-derived 13 mer peptide 31 (human)
T7 sequence (peptide): SPDGQFILLEYNY

[8] = molecular target: T8, human CD26-derived 13 mer peptide 91 (human)
T8 sequence (peptide): FNDTEVPLIEYSF

B1: rhuMAb 411 (antibody, human IgG1, kappa, V domains shown)
VH: EVQLVESGAGVKQPGGTLRLTCTASGFSLTTYGVHWVRQAPGKGLEWVGVIWGDGRTDYDAAFMSRVTISKDTSKSTVYLQMNSLRAEDTAVYYCMRNRHDWFDYWGQGTTVTVSS
VL: DILLTQSPSSLSATPGERATITCRASQGIRNNLNWYQQKPGQAPRLLIYYSSNLQSGVPSRFSGSGSGTDFTLTISRLQPEDVAAYYCQQSIKLPFTFGSGTKVEIKR
B1 gave a Mean Signal Value [1] of 1.94, a Mean Signal Value [2] of 2.45 and a Mean Signal Value [3] of 2.08. It also gave a Mean Signal Value [4] of 1.8, a Mean Signal Value [5] of 2.16 and a Mean Signal Value [6] of 1.92. For the same binder, the Mean Signal Value [7] was 2.33 and the Mean Signal Value [8] was 2.3.
